From patent publication US20210371503A1 (UNIVERSITY OF COLOGNE, published 2021)
Positions count from the first letter of the chain named. Like-named read-outs stand apart in the source and are kept apart here.

B1: MnC2t2p1_C11 (antibody, V domains shown)
VH: QVQLVQSGAEVKKPGSSVKVSCKASGGTFSRYTIIWVRQAPGQGLEWMGRIIPILDIANYAQKFQGRVTITADKSTSTAYMELSSLRSEDTAVYYCAREGGLDYFGSRNSGWTYTWFDPWGQGTLVTVSS
VL: DIQMTQSPSSLSASVGDRVTITCRASQNISSYLNWYQQKPGKAPNLLIYAASSLQSGVPPRFSGSGSGTDFTLTISSLQPEDFATYYCQQSYSTLYSFGQGTKLEIK
B2: DZIF-10c (antibody, V domains shown)
VH: QVQLVESGGGVVQPGRSLRLSCAATGFTFRRYGMHWVRQAPGKGLEWVAGILFDGSNKYYVDSVKGRFTISRDSSRNTLYLQLNSLRREDTAVYYCAKGGDYEWELLESWGQGTLVTVSS
VL: DIQMTQSPSTVSASVGDRVTITCRASQSIDNWLAWYQEKPGKAPKVLIYKASSLESGVPSRFSGRGSGTEFTLTISSLQPGDFATYYCQHYHSFPLTFGGGTKVDIKR
notes: also called HbnC3t1p1_F4(-K); EX14870
B3: MnC4t2p1_B3 (antibody, V domains shown)
VH: EVQLVESGGHLVQPGRSLRLSCAASGFTFDDYAMHWVRQVPGKGLEWVSGISWNGGILDYADSVKGRFTISRDNAKNSLYLHMRSLRTDDTALYYCAKDLRRQDYYADWYFDLWGRGTLVTVSS
VL: DIQMIQSPSSVSASVGDRVTITCRASQGISSWLAWYQQKPGKAPKLLIYAASTLLSAVPSRFSGSGSGTDFTLTISSLQPEDFATYYCQQGNSFPFTFGPGTIVDV
B4: MnC4t2p1_E6 (antibody, V domains shown)
VH: B3 VH with D59G, H82Q
VL: B3 VL with I5T, I103K
B5: MnC2t1p1_A3 (antibody, V domains shown)
VH: EVQLVESGGGLVQPGGSLRLSCAASGFTVSSNYMSWVRQAPGRGLEWVSVIYSGGSTFYADSVKGRFTISRDNSKNTLYLQMNSLRPEDTAVYYCATGARFGESPFDYWGQGTLVTVSS
VL: DIQMTQSPSSVSASVGDRVTITCRASQGISSWLAWYQQKPGKAPKLLIYAASSLQSGVPSRFSGSGSGTDFTLTISSLQPEDFATYYCQQANSFPGTFGQGTKVEIK
B6: MnC4t1p1_A11 (antibody, V domains shown)
VH: EVQLVESGGGLVQPGGSLRLSCAASGFTFSSYSMNWVRQAPGKGLEWVSYISSSSNTRYYTDSVMGRFTISRDNAKNSLFLQMNSLRAEDTAVYYCASSKGFCSGGSCSDYWGQGTLVTVSS
VL: EIVLTQSPGTLSLSPGERATLSCRASQSVSSSYLAWYQQKPGQAPRLLIYGVSSRATGIPDRFSGSGSGTDFTLTISRLEPEDFVVYYCHQYGSSPWTFGQGTKVEIK
B7: MnC4t2p2_A4 (antibody, V domains shown)
VH: QVQLVQSGSELKKPGASVKISCKASGYIFINYAMNWVRQAPGQGLEWMGWINTNTGNPTYAQDFTGRFVFSLDTSLSTAYLQISSLEAEDTAVYYCAKIGSRNSLGVWGQGTLVTVSA
VL: EIVLTQSPGTLSLSPGERATLSCRASHSVDRSYLAWYQQKPGLAPRLLIYGASSRATGIPDRFSGSGSGTDFTLTISRLEPEDFALYYCQHFGTSSVTFGRGTRLEIK

Columns and labels:
[1] = target: T1, receptor-binding domain (RBD) of the spike (S) protein of SARS-CoV-2 (SARS-CoV-2, UniProt P0DTC2 319-541)
[2] = target: S1 (truncated S1 subunit); test: ELISA, coated truncated S1 [cont'd]
[3] = target: T1, receptor-binding domain (RBD) of the …; test: ELISA, coated RBD [cont'd]
[4] = target: T1, receptor-binding domain (RBD) of the …; test: assay not stated; row Binding Affinity Spike RBD
[5] = target: S1 (truncated S1 subunit); test: ELISA, coated truncated S1 [cont'd]; remark: listed apart in the source
[6] = target: T1, receptor-binding domain (RBD) of the …; test: ELISA, coated RBD [cont'd]; remark: listed apart in the source
[7] = target: T1, receptor-binding domain (RBD) of the …; remark: listed apart in the source

Row | Binder | Kd [1] [nM] | EC50 [2] [µg/mL] | EC50 [3] [µg/mL] | Kd [4] [nM] | EC50 [5] [µg/mL] | EC50 [6] [µg/mL] | Kd [7] [nM]
1 | B1 | 0.02 | < 100 | < 100 | – | – | – | –
2 | B2 | – | – | – | 2 | – | – | –
3 | B3 | 0.09 | < 100 | < 100 | – | – | – | –
4 | B4 | – | – | – | – | < 100 | < 100 | –
5 | B5 | 0.7 | < 100 | < 100 | – | – | – | –
6 | B6 | – | < 100 | < 100 | – | – | – | 2000
7 | B7 | 14 | – | – | – | < 100 | < 100 | –
